Reference: patent US11795460B2, “Compositions and methods for TTR gene editing and treating ATTR amyloidosis” (Intellia Therapeutics, Inc., priority 2017, dated 2023)
Strand notation (5' to 3'): a small letter for the sugar, then the base; units joined by * are phosphorothioate-linked, units joined directly phosphodiester-linked; [ ] holds rarer units or linkages, { } end groups; capitals alone tell only the bases. m = 2'-O-methyl; r = 2'-OH (RNA)

B1: G000494: TTR sgRNA modified sequence, Human, SEQ ID No. 101; guide sequence of CR003360 (nucleic acid)
guide: mG*mU*mG*rArGrUrCrUrGrGrArGrArGrCrUrGrCrArUrGrUrUrUrUrArGrAmGmCmUmAmGmAmAmAmUmAmGmCrArArGrUrUrArArArArUrArArGrGrCrUrArGrUrCrCrGrUrUrArUrCrAmAmCmUmUmGmAmAmAmAmAmGmUmGmGmCmAmCmCmGmAmGmUmCmGmGmUmGmCmU*mU*mU*mU
B2: G000499: TTR sgRNA modified sequence, Human, SEQ ID No. 106; guide sequence of CR005303 (nucleic acid)
guide: mU*mG*mA*rArUrCrCrArArGrUrGrUrCrCrUrCrUrGrArGrUrUrUrUrArGrAmGmCmUmAmGmAmAmAmUmAmGmCrArArGrUrUrArArArArUrArArGrGrCrUrArGrUrCrCrGrUrUrArUrCrAmAmCmUmUmGmAmAmAmAmAmGmUmGmGmCmAmCmCmGmAmGmUmCmGmGmUmGmCmU*mU*mU*mU
B3: G000480: TTR sgRNA modified sequence, Human, SEQ ID No. 87; guide sequence of CR003353 (nucleic acid)
guide: mA*mA*mA*rGrGrCrUrGrCrUrGrArUrGrArCrArCrCrUrGrUrUrUrUrArGrAmGmCmUmAmGmAmAmAmUmAmGmCrArArGrUrUrArArArArUrArArGrGrCrUrArGrUrCrCrGrUrUrArUrCrAmAmCmUmUmGmAmAmAmAmAmGmUmGmGmCmAmCmCmGmAmGmUmCmGmGmUmGmCmU*mU*mU*mU
B4: G000488: TTR sgRNA modified sequence, Human, SEQ ID No. 95; guide sequence of CR003346 (nucleic acid)
guide: mA*mA*mA*rGrUrUrCrUrArGrArUrGrCrUrGrUrCrCrGrGrUrUrUrUrArGrAmGmCmUmAmGmAmAmAmUmAmGmCrArArGrUrUrArArArArUrArArGrGrCrUrArGrUrCrCrGrUrUrArUrCrAmAmCmUmUmGmAmAmAmAmAmGmUmGmGmCmAmCmCmGmAmGmUmCmGmGmUmGmCmU*mU*mU*mU
B5: G000489: TTR sgRNA modified sequence, Human, SEQ ID No. 96; guide sequence of CR003344 (nucleic acid)
guide: mU*mU*mU*rGrArCrCrArUrCrArGrArGrGrArCrArCrUrGrUrUrUrUrArGrAmGmCmUmAmGmAmAmAmUmAmGmCrArArGrUrUrArArArArUrArArGrGrCrUrArGrUrCrCrGrUrUrArUrCrAmAmCmUmUmGmAmAmAmAmAmGmUmGmGmCmAmCmCmGmAmGmUmCmGmGmUmGmCmU*mU*mU*mU
B6: G000481: TTR sgRNA modified sequence, Human, SEQ ID No. 88; guide sequence of CR003345 (nucleic acid)
guide: mU*mC*mU*rArGrArArCrUrUrUrGrArCrCrArUrCrArGrGrUrUrUrUrArGrAmGmCmUmAmGmAmAmAmUmAmGmCrArArGrUrUrArArArArUrArArGrGrCrUrArGrUrCrCrGrUrUrArUrCrAmAmCmUmUmGmAmAmAmAmAmGmUmGmGmCmAmCmCmGmAmGmUmCmGmGmUmGmCmU*mU*mU*mU
B7: G000482: TTR sgRNA modified sequence, Human, SEQ ID No. 89; guide sequence of CR003365 (nucleic acid)
guide: mU*mG*mU*rArGrArArGrGrGrArUrArUrArCrArArArGrGrUrUrUrUrArGrAmGmCmUmAmGmAmAmAmUmAmGmCrArArGrUrUrArArArArUrArArGrGrCrUrArGrUrCrCrGrUrUrArUrCrAmAmCmUmUmGmAmAmAmAmAmGmUmGmGmCmAmCmCmGmAmGmUmCmGmGmUmGmCmU*mU*mU*mU
B8: G000486: TTR sgRNA modified sequence, Human, SEQ ID No. 93; guide sequence of CR003339 (nucleic acid)
guide: mA*mC*mA*rCrArArArUrArCrCrArGrUrCrCrArGrCrArGrUrUrUrUrArGrAmGmCmUmAmGmAmAmAmUmAmGmCrArArGrUrUrArArArArUrArArGrGrCrUrArGrUrCrCrGrUrUrArUrCrAmAmCmUmUmGmAmAmAmAmAmGmUmGmGmCmAmCmCmGmAmGmUmCmGmGmUmGmCmU*mU*mU*mU
B9: G000483: TTR sgRNA modified sequence, Human, SEQ ID No. 90; guide sequence of CR005298 (nucleic acid)
guide: mU*mC*mC*rArCrUrCrArUrUrCrUrUrGrGrCrArGrGrArGrUrUrUrUrArGrAmGmCmUmAmGmAmAmAmUmAmGmCrArArGrUrUrArArArArUrArArGrGrCrUrArGrUrCrCrGrUrUrArUrCrAmAmCmUmUmGmAmAmAmAmAmGmUmGmGmCmAmCmCmGmAmGmUmCmGmGmUmGmCmU*mU*mU*mU
B10: G000484: TTR sgRNA modified sequence, Human, SEQ ID No. 91; guide sequence of CR003367 (nucleic acid)
guide: mA*mG*mA*rCrArCrCrArArArUrCrUrUrArCrUrGrGrArGrUrUrUrUrArGrAmGmCmUmAmGmAmAmAmUmAmGmCrArArGrUrUrArArArArUrArArGrGrCrUrArGrUrCrCrGrUrUrArUrCrAmAmCmUmUmGmAmAmAmAmAmGmUmGmGmCmAmCmCmGmAmGmUmCmGmGmUmGmCmU*mU*mU*mU
B11: G000485: TTR sgRNA modified sequence, Human, SEQ ID No. 92; guide sequence of CR003336 (nucleic acid)
guide: mC*mC*mU*rCrCrUrCrUrGrCrCrUrUrGrCrUrGrGrArCrGrUrUrUrUrArGrAmGmCmUmAmGmAmAmAmUmAmGmCrArArGrUrUrArArArArUrArArGrGrCrUrArGrUrCrCrGrUrUrArUrCrAmAmCmUmUmGmAmAmAmAmAmGmUmGmGmCmAmCmCmGmAmGmUmCmGmGmUmGmCmU*mU*mU*mU
B12: G000487: TTR sgRNA modified sequence, Human, SEQ ID No. 94; guide sequence of CR003357 (nucleic acid)
guide: mU*mU*mC*rUrUrUrGrGrCrArArCrUrUrArCrCrCrArGrGrUrUrUrUrArGrAmGmCmUmAmGmAmAmAmUmAmGmCrArArGrUrUrArArArArUrArArGrGrCrUrArGrUrCrCrGrUrUrArUrCrAmAmCmUmUmGmAmAmAmAmAmGmUmGmGmCmAmCmCmGmAmGmUmCmGmGmUmGmCmU*mU*mU*mU
B13: G000490: TTR sgRNA modified sequence, Human, SEQ ID No. 97; guide sequence of CR003366 (nucleic acid)
guide: mA*mA*mA*rUrArGrArCrArCrCrArArArUrCrUrUrArCrGrUrUrUrUrArGrAmGmCmUmAmGmAmAmAmUmAmGmCrArArGrUrUrArArArArUrArArGrGrCrUrArGrUrCrCrGrUrUrArUrCrAmAmCmUmUmGmAmAmAmAmAmGmUmGmGmCmAmCmCmGmAmGmUmCmGmGmUmGmCmU*mU*mU*mU

Columns and labels:
TTR = TTR editing in primary human hepatocytes transfected with Spy Cas9 mRNA and sgRNAs (Table 13); assay type: cell-based; conditions: primary human hepatocytes co-transfected with Spy Cas9 mRNA (SEQ ID NO:2) and sgRNAs, 12.5 nM
Protocol: Primary liver hepatocytes. Primary human liver hepatocytes (PHH) and primary cynomolgus liver hepatocytes (PCH) (Gibco) were cultured per the manufacturer's protocol (Invitrogen, protocol 11.28.2012). In brief, the cells were thawed and resuspended in hepatocyte thawing medium with supplements (Gibco, Cat. CM7000) followed by centrifugation at 100 g for 10 minutes for human and 80 g for 4 minutes for cyno. The supernatant was discarded and the pelleted cells resuspended in hepatocyte plating medium plus supplement pack (Invitrogen, Cat. A1217601 and CM3000). Cells were counted and plated on Bio-coat collagen I coated 96-well plates (ThermoFisher, Cat. 877272) at a density of 33,000 cells/well for human or 60,000 cells/well for cyno (or 65,000 cells/well when assaying effects on TTR protein, described further below). Plated cells were allowed to settle and adhere for 6 or 24 hours in a tissue culture incubator at 37° C. and 5% CO2 atmosphere. After incubation cells were checked for monolayer formation and media was replaced with hepatocyte culture medium with serum-free supplement pack (Invitrogen, Cat. A1217601 and CM4000).
Lipofectamine RNAiMax (ThermoFisher, Cat. 13778150) based transfections were conducted as per the manufacturer's protocol. Cells were sequentially transfected with a lipoplex containing Spy Cas9 mRNA (100 ng), Lipofectamine RNAiMax (0.4 […]) and tracer RNA ([…]), Lipofectamine RNAiMax (0.4 μL/well) and OptiMem.
Transfected cells were harvested post-transfection at 24, 48, or 72 hours. The genomic DNA was extracted from each well of a 96-well plate using 50 μL/well BuccalAmp DNA Extraction solution (Epicentre, Cat. QE09050) per manufacturer's protocol. All DNA samples were subjected to PCR and subsequent NGS analyses, as described herein.
To quantitatively determine the efficiency of editing at the target location in the genome, sequencing was utilized to identify the presence of insertions and deletions introduced by gene editing.
Primers were designed around the target site within the gene of interest (e.g. TTR), and the genomic area of interest was amplified.
Additional PCR was performed per the manufacturer's protocols (Illumina) to add chemistry for sequencing. The amplicons were sequenced on an Illumina MiSeq instrument. The reads were aligned to a reference genome (e.g., the human reference genome (hg38), the cynomologus reference genome (mf5), the rat reference genome (rn6), or the mouse reference genome (mm10)) after eliminating those having low quality scores. The resulting files containing the reads were mapped to the reference genome (BAM files), where reads that overlapped the target region of interest were selected and the number of wild type reads versus the number of reads which contain an insertion, substitution, or deletion was calculated.
The editing percentage (e.g., the “editing efficiency” or “percent editing” or “indel frequency”) is defined as the total number of sequence reads with insertions/deletions (“indels”) or substitutions over the total number of sequence reads, including wild type.
Guides in modified sgRNA format targeting human and/or cyno TTR were delivered to primary human hepatocytes and primary cyno hepatocytes as described in Example 1. Percent editing was determined for crRNAs comprising each guide sequence across each cell type and the guide sequences were then rank ordered based on highest % edit. The screening data for the guide sequences in Table 2 in both cell lines are listed below (Table 12 through 15).

[1] = system: off-target integration sites; experiment: Off-target oligo insertion based assay in primary human hepatocytes (Table 30); assay type: cell-based; conditions: TTR sgRNAs in PHH, 100 ng Cas9 mRNA, 25 nM sgRNA, 12.5 nM donor oligo
Protocol: Off-target analysis of sgRNAs targeting TTR was performed in primary human hepatocytes (PHH) as described in Example 5, with the following modifications. PHH were plated at a density of 33,000 cells per well on collagen-coated 96-well plates as described in Example 1. Twenty-four hours post plating, cells were washed with media and transfected using Lipofectamine RNAiMAX (ThermoFisher, Cat. 13778150) as described in Example 1. Cells were transfected with a lipoplex containing 100 ng Cas9 mRNA, immediately followed by the addition of another lipoplex containing 25 nM of the sgRNA and 12.5 nM of the donor oligo (0.3 μL/well). Cells were lysed 48 hours post-transfection and gDNA was extracted and analyzed as further described in Example 5. The data is graphically represented in FIG. 20.
Fewer sites were detected in PHH for every guide tested as compared to the HekCas9 cell line, with no unique sites detected in PHH alone.

| Molecule | Avg % Deletion (TTR) [%] | Avg % Edit (TTR) [%] | Avg % Insert (TTR) [%] | # Sites in PHH [1] |
| --- | --- | --- | --- | --- |
| B1 | 1.07 | 26.22 | 25.17 | 0 |
| B2 | 0.77 | 39.30 | 38.58 | 1 |
| B3 | 13.47 | 73.28 | 59.85 | 2 |
| B4 | 37.48 | 49.40 | 11.98 | 0 |
| B5 | 10.28 | 24.25 | 14.17 | 2 |
| B6 | 19.77 | 34.30 | 14.62 | 0 |
| B7 | 13.25 | 40.93 | 27.70 | 2 |
| B8 | 56.37 | 59.13 | 2.82 | 0 |
| B9 | 23.85 | 27.82 | 4.05 | 0 |
| B10 | 29.48 | 43.37 | 13.98 | 0 |
| B11 | 1.97 | 30.82 | 28.87 | 3 |
| B12 | 2.27 | 49.57 | 47.38 | 0 |
| B13 | 5.38 | 24.72 | 19.38 | 0 |
